Laboratory results from patent US7741277 (AETERNA ZENTARIS, dated 2010).
Several values for one entry are separate records, joined by “and”; a condition that tells them apart may be missing. Equal values may be shown once.

Target: T1, human GnRH receptor (hGnRH-R) (human, UniProt P30968 1-328)
T1 sequence (looked up): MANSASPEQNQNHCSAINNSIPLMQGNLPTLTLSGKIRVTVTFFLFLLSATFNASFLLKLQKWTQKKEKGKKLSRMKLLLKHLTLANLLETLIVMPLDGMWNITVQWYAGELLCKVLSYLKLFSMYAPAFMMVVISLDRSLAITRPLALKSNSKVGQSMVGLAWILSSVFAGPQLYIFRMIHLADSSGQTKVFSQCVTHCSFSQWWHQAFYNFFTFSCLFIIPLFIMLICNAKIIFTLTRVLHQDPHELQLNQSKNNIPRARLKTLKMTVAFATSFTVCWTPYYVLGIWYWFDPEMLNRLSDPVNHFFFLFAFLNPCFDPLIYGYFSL
Assay: cell-based or functional assay

| Molecule | proliferation status after 96 h (vital cells, untreated control = 100%), hGnRH-R positive cell line 5C6, 100 nM (% of untreated control) | proliferation status after 96 h (vital cells, untreated control = 100%), hGnRH-R positive cell line 5C6, 0.1 nM | proliferation status after 96 h (vital cells, untreated control = 100%), hGnRH-R positive cell line 5C6, 1 nM | proliferation status after 96 h (vital cells, untreated control = 100%), hGnRH-R positive cell line 5C6, 10 nM | proliferation status after 96 h (vital cells, untreated control = 100%), hGnRH-R positive cell line 5C6, 100 nM |
| --- | --- | --- | --- | --- | --- |
| AN-152 (peptide) | 42.1 and 43.9 | – | – | – | – |
| XHWSYKLRPG (Glp (pyroglutamate) at 1; D-Lys at 6, joined through a succinyl linker to disorazole E1; C-terminal amide) [disorazole E1 mono hemi succinyl [D-Lys^6]LHRH, both regio-isomers (13) & (14)] | – | 85.9 % of untreated control | 80.8 % of untreated control | 45.9 % of untreated control | 14.6 % of untreated control |
| XHWSYKLRPG (Glp (pyroglutamate) at 1; D-Lys at 6, joined through a glutaryl linker to disorazole Z; C-terminal amide) [disorazole Z bis hemi glutaryl [D-Lys^6]LHRH (17)] | – | 95.5 % of untreated control | 85.9 % of untreated control | 58.5 % of untreated control | 41.7 % of untreated control |
| XHWSYKLRPG (Glp (pyroglutamate) at 1; D-Lys at 6, joined through a succinyl linker to disorazole Z; C-terminal amide) [disorazole Z mono hemi succinyl [D-Lys^6]LHRH (16)] | – | 83.8 % of untreated control | 80.9 % of untreated control | 54.1 % of untreated control | 21.9 % of untreated control |
